# Measurements reported in PMC9712074 (Cell Reports, 2022).
# Target: SARS-CoV-2 (WT) Spike RBD Protein (His Tag) (SARS-CoV-2 ancestral (Wuhan-Hu-1), UniProt P0DTC2)
row,Binder,binding result
1,"BD55-5265 (antibody, V domains shown) VH: EVQLVQSGAEVKKPGESLKISCKGAGYIFTHYWIAWVRQMPGKGLEWMGIVHPGDSDTRYSPSFQAQVTISADKSINTAYLQWSSLKASDTAIYFCARHGVHSGYSGYDRWDGHYYGMDVWGQGTTVTVSA VL: SYVLTQPPSVSVAPGKTARITCGGNNIGSKSVHWYQQKPGQAPVLVVYDGSERPSGIPERFSGSNSENTATLTISRVEAGDEADYYCQVWNDNSDSLVFGTGTEVTVL",binds
2,"BD55-5271 (antibody, V domains shown) VH: QVTLKESGPVLVKPTETLTLTCTVSGISLNNARMAVSWIRQPPGKALEWLAHILSNDEKSFSKSLTSRLTISKDSSKNQVVLRLTNMDPVDTGTYYCARIVYDSSSYYYSGDNWFDPWGQGTQVTVSS VL: SYELTQPPSVSVSPGQTARITCTGDAFPNQYAYWYQQKSGQAPVLVIYKDSERPSGIPERFSGSSAGTTVTLTISGVQAEDEADYYCQSADSRGVVFGGGTKVTVL",binds
3,"BD55-5267 (antibody, V domains shown) VH: QVQLQESGPGLVKPSGTLSLTCAVSGGSISSSNWWSWVRQPPGKGLEWIGEIYHSGSTNYNPSLKSRVTISVDKSKNKFSLKLSSVTAADTAVYFCARAGWIESGYDAFVGYFDYWGQGTLVTVSS VL: DIQMTQSPSSLSASVGDRVTITCRASQGISSSLAWYQQKPGKAPDLLLYAASGLESGVPSRFSGSGSGTDFTLSISSLQPEDFATYYCQQYYSPPRTFGQGTKLEIK",binds
4,"BD55-5263 (antibody, V domains shown) VH: QVQLVQSGAEVKKPGASVKVSCKGSGYIFTNYGVSWVRQAPGQGLECMGWISAYNGNTDYTQKFQGRVTMTTDTSTSTAYMELRSLTSDDTAVYYCARAAHNWGPEDAFDIWGQGSMVTVSS VL: not shown",binds
5,"BD55-5228 (antibody, V domains shown) VH: QVHLVQSGSELKKPGASVKVSCKSSGHTFTIFAINWVRQAPGQGLEWMGWINTNTGNPTYAQGFTGRFVFSLDTSVNTAYLQISSLQPEDTAVYYCVGSNWGDYYFDPWGQGTLVTVSS VL: EIVMTQSPATLSVSPGERATLSCRASYSLSSNLAWYQQKPGQAPRLLIYGASIRATGFPARFSGNGSGTEFTLTISSLQSEDFAVYYCQQYTSWPLTFGQGTKVEIK",binds
6,"BD55-5215 (antibody, V domains shown) VH: EVQLVESGGGLGQPGGSLRLSCAASGFTFSRYGMGWVRQAPGKGLEWVSVISGSGGATYYADSVKGRFTISRDNSKNTLFLQMNSLRVEDTAVYYCAKDGGQLQLVEIFTFDPWGRGTLVTVSS VL: DIQMTQSPSSLSASVGDRVTITCRASQGIRNSLAWYQQKPGKAPKLLLYAASRLESGVPSRFSGSGSGTDYTLTISSLQPEDFATYYCQQYYSAWTFGQGTKVEIK",binds
7,"BD55-5233 (antibody, V domains shown) VH: EVQLLESGGGLVQPGGSLRLSCAASGFTFSRSSMGWVRQAPGKGLEWVSTISEDGYTPYYADSVKGRFTISRDNSENRLFLQMNGLRAEDTALYYCAKDVDFDKWRQTCFDSWGQGALVTVSS VL: QSVLTQPPSVSGAPGQRVTISCTGSNSNIGAGYDVHWYQQLPGTAPKLLIYGNNNRPSGVPDRFSGSKSGTSASLAITGLQAEDEADYYCQSYDSSLNVLYVFGTGTRVTVL",binds
8,"BD55-5245 (antibody, V domains shown) VH: QVQLVQSGAEVKKPGSSVKVSCKASGGSLSSDGINWVRQAPGQGLEWLGRIIPIPGIADNAQKFQGRVTITADKSTSTAYMELSSLRSEDTAVYYCARAPPRGYSGYDLLGNDAFDIWGQGTMVTVSS VL: QSVLTQPPSVSGAPGQRVTISCTGSSSNIGAGYDVHWYQQLPGTAPKLLLYGNTNRPSGVPDRFTGSKSGTSASLAITGLQAEDEADYYCQSYDTSLSGSYVFGTGTKVAVL",binds
9,"BD55-5250 (antibody, V domains shown) VH: QVQLVQSGAEVKKPGASVKVSCKASGYTFTSNAIHWVRQAPGQRLEWMGWIMADNGYTKYSENFQGRVTITRDTSASTVYMEVSSLRSGDTAVYYCAREGSMWYSTYFDHWGQGTLVTVSS VL: DIQMTQSPSSLSASVGDRVTITCRASQSISSYLTWYQQKSGTAPKLLIYAASSLQSGVPSRFSGSGSGTDFTLTISSLQPEDFATYYCQQSYTDPFTFGPGTKVDFK",binds
10,"BD55-5276 (antibody, V domains shown) VH: EVHLEESGGGLVHPGRSLRLSCAASGFTLDEYAMHWVRRAPGKGLEWVSGISWNSGARGYADSVKGRFTISRDNAKNSLYLQMNSLRAEDTAFYYCAKDNSHGSGTAWDWLDSWGQGTLVTVSS VL: NFMLTQPHSVSESPGKTVTISCTRSSGTITNNYVQWYRQRPGSSPTTVIFEDNQRPSGVPDRFSGSIDSSSNSASLTISGLKTEDEADYYCQSHDSSNWVFGGGTKLTVL",binds
11,"BD55-5268 (antibody, V domains shown) VH: QVQLQQRGAGLLRPSETLSLTCDVSGGSFSGYYWNWVRQPPGKGLEWIGDIDLAGDNYNPSLKSRVTMSIDASKNQFSLRLSSVTAADTAVYFCVRAPNLGWFGPKQGAFDLWGQGTVVIVSS VL: not shown",binds
12,"BD55-5223 (antibody, V domains shown) VH: EVQLLESGGGWVQPGGSLRLSCAASGFTFSSYAMSWVRQAPGKGLEWVSAISNTGGSTYYADSVKGRFTVSRDDSKNTLYLQMNSLRAEDTAVYYCAKNWDSIGYTSGWQHLDWFDPWGQGTLVTVSS VL: DIQMTQSPSSLSASVGDRVTITCRASQSINTYLNWYQQKPGKAPKLLIYVASSLQSGVPSRFSGSGSGTDFTLTISSLQPEDFATYYCQQSYSSPSITFGQGTRLEIK",binds
13,"BD55-5238 (antibody, V domains shown) VH: QEQLVESGGGVVQPGRSLRLSCAASGLTFSSYAMHWVRQAPGKGLEWVAVIWYNGLKKYYADSVKGRFTISRDNYKNTAYLQMSSLRAEDTAVYYCAREGGGDILTGNEFEFWGQGTLVTVSS VL: QSVLTQPPSVSGAPGQTVTISCTGGSSNTGAGYDVHWYQQLPGTAPKLLIFANKNRPSGVPDRFSGSKSGTSASLSITGLQAEDEGDYYCQSYDSSLSGWVFGGGTKVTVL",binds
14,"BD55-5242 (antibody, V domains shown) VH: QVQLVQSGAEVKKPGASVKVSCKAFGYTFNSNYIHWVRQAPGQGLEWMGVIDPSGGATSYAQKFQGRVTMTRDTSTNTVYMELSSLRSEDTAVYYCARDLGDDVSRGYSGYDFLDLYGMDVWGQGTTVTVS VL: not shown",binds
15,"BD55-5251 (antibody, V domains shown) VH: QITLKESGPALVKPTQTLTLTCTFSGFSLSSNGVGVGWIRQSPGKALEWLALIYWDDDKRYTPSLKKRLTVTKDTSKNQVVLTMTNMDPVDTATYYCAHMARPRGLFINPSWFDPWGQGTLVTVSS VL: QSVLTQPPSASGTPGQRVTISCSGSSSNIGSNTIDWYQQLPGTAPRLLIYGHDLRPSGVPDRFSGSQSGTSASLVISGLQSEDEADYYCAAWDDSLNGPVFGGGTKLTVL",binds
16,"BD55-5226 (antibody, V domains shown) VH: EVQLVESGGGLVKPGGSLRLSCAASGFTFSSYSMNWVRQAPGKGLEWVSSISMTSSYRHYADSVRGRFTISRDNANNSLFLQMNSLRAEDTAVYFCARDSNLRTGDANDYWGQGTLVTVSS VL: not shown",binds
17,"BD55-5239 (antibody, V domains shown) VH: QVQLQESGPGLVRPSQTLSLTCSVSGGSISSGTYNWAWIRQPPGKDLEWIGHIYHSGSTYYNPSLRSRVNMSVDTSKNQFSLKLSSVTAADTAVYYCARERGPIAEFDFWGQGILVTVSS VL: DIQMTQSPSSVSASIGDGVTITCRASQGISSWLAWYQQRPGKAPKLLISAAFTLQSGVPSRFSARGSGTDFTLIISNLQPEDFATYYCQQANSFPPTFGQGTKLEIK",binds
18,"BD55-5264 (antibody, V domains shown) VH: QVQLVQSGAEVKKPGASVKVSCKVSGYTLTKFSIHWVRQGHGKGLEWMGGFDIGEGGTIYAQKFQGRVTMTEDTSTDTSYMELSSLRSEDTAMYYCATDGEYSSGWAGVKLWGQGTLVTVSS VL: DIQMTQSPSTLSASVGDRVTITCRASQSISSWLAWYQQKPGKAPKLLIYKASSLESGVPSRFSGSGSGTEFTLTISSLQPDDFATYYCQQCDSYPWTFGQGTKVEIK",binds
19,"BD55-5259 (antibody, V domains shown) VH: QITLKESGPTLVKPTQTLTLTCTFSGFSLTMPEVGVAWVRQPPGKALEWLALIYGDDNKRYSPSLESRLTITKDSSKNQVVLTMTNLDSVDTATYYCARRKFLWDSDPVAFDYWGLGTLVIVSS VL: DIVMTQTPLSLPVTLGQPASISCRSSQSLVHIDGNIYLSWLQQRPGQPPRLLIYKISNRFSGVPDRFSGSGSGTDFTLKISRVEAEDVGVYYCMQATQFPHEMYTFGQGTKLEIR",binds
20,"BD55-5256 (antibody, V domains shown) VH: QVQLVQSGTEVKKPGSSVKVSCKASGGPFSGYVINWVRQAPGQGLEWMGGIIPVFETVKYAQKFQGRVTITAGESASTAYMELNSLRSEDTAVYYCAKSKYHSGYDVLTGRADFSLPFDYWGQGTLVTVSS VL: DIQMTQSPSSLSASVGDRVIITCQASQDITNSLSWYQQKPGKAPKLLIYGAFNLETGVPSRFSGSGSGTDFTFAISSLQPEDIATYFCQQYADLPYTFGQGTKLDIK",binds
21,"BD55-5219 (antibody, V domains shown) VH: QVQLVQSGSELKRLGASVTLSCKASGYTFTNYAINWVRQAPGHGLQWMGWINPDTGTPTYAQGFAGRFVFSLDSSVSTSYLQIRSLKADDTAVYYCARDANQWPRNQWFGPWGQGTLVTVSS VL: DIVLTQSPDSLAVSLGERATINCKSSHSVFYSSSNQNDLAWYQQKPGQPPKLLIYWASIRESGVPDRFSGSGSGTDFTLTISSLQAEDVAVYYCQQHYSTPLTFGGGTKVEIK",binds
22,"BD55-5236 (antibody, V domains shown) VH: QVQLVQSGAEVKKPGSSVKVSCKASGGTFTSQAISWVRQAPGQGLEWMGRIITVLGTTTYAQKFQGRLRITADRSTNTAYMDLTGLTSDDTAVYFCARDLDGYSGYDFGSSERRDSFYFDYWGQGTLVNVPS VL: SSELTQDPPVSVALGQTVRITCQGDSLRTYYASWFQQKPGQAPLLVVYGKNYRPSGIPARFSGSFSGNTASLTITGAQAEDEADYYCNSRDSNNDHHVIFGGGTKLTVL",binds
23,"BD55-5248 (antibody, V domains shown) VH: QVQLVESGGGVVQPGRSLRLSCAASGFTFSSYDMYWVRQAPGKGLEWVAVISYDGSSNFYADSVKGRFTISRDNSRNTLSLQMNSLRAEDTAVYFCARERREQLTPVFDHWGQGTLVTVSS VL: DIQMTQSPSSLSASVGDRVTITCRASQSISSYLNWYQQRPGKAPKLLIYSASTLESGVPSRFSGSGSGTDFTLTINSLQPEDFATYYCQQSYSTLALTFGGGTKVEIK",binds
